The supplement of paper PMC10724198
± gives the standard deviation of the averaged measurements.

Test system: Saccharomyces cerevisiae
Experiment: protein stability index of tFT-peptide fusion (C-terminal peptide) (PSI (0-1 scale)); higher = more stable (slower turnover)
Conditions: genetic background: wild type; temperature: 30 C
Procedure: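 Multiplexed protein stability (MPS) profiling in S. cerevisiae. Random 12-aa peptides (tFT-X12 library) are fused to the C-terminus of a sfGFP-mCherry tandem fluorescent timer, after mCherry and a GGGS linker. Cells are FACS-sorted into 8 mCherry/sfGFP bins and deep-sequenced. The protein stability index (PSI) is the read-weighted bin average, scaled from 0 (unstable) to 1 (stable). Only peptides with >10 reads are reported; cells were grown at 30 °C in SC-His with glucose.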
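Note: PSI is a weighted mean of sequencing reads over stability bins, variants kept only with over 10 reads, mCherry proximal and sfGFP distal, peptide attached via GGGS linker.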

| Sequence | protein stability index |
| --- | --- |
| CSSVRRRSWCFS | 0.846 ± 0.16 |
| CSTIRDFTIYPP | 0.694 ± 0.11 |
| CSVGLPPLPPLH | 0.704 ± 0.076 |
| CSVVMGFYCRGA | 0.694 ± 0.038 |
| CTGISVFYLFGD | 0.66 ± 0.033 |
| CTLSQGLSGSRI | 0.6609 ± 0.0024 |
| CTLWCIPGCNMR | 0.666 ± 0.066 |
| CTPVLLLRVLGN | 0.58 ± 0.036 |
| CTSCHVWRLSRF | 0.765 ± 0.034 |
| CVCVCHPPRRFL | 0.719 ± 0.015 |
| CVGLIGVINGGL | 0.558 ± 0.0081 |
| CVGPSVERGFWG | 0.689 ± 0.031 |
| CVGTLSPKTVRT | 0.697 ± 0.024 |
| CVLGVGVPAGGG | 0.634 ± 0.032 |
| CVPPSFRPSLFD | 0.75 ± 0.015 |
| CVREDSRPFPAS | 0.76 ± 0.044 |
| CVSRRRGGEIGG | 0.655 ± 0.044 |
| CVSSALRVPGRE | 0.699 ± 0.027 |
| CVTFGGCGVWYV | 0.624 ± 0.018 |
| CVWFGVGRCCGR | 0.648 ± 0.043 |
| CVWHELTYGSLY | 0.66 ± 0.062 |
| CWASTFGLGFLP | 0.757 ± 0.0022 |
| CWCRVGSSGCVR | 0.668 ± 0.039 |
| CWGAGPRLVRVW | 0.4998 ± 0.00039 |
| CWLGSIAGLRGR | 0.7399 ± 0.0064 |
| CWPLITTNCTVP | 0.7081 ± 0.0054 |

| Sequence | protein stability index |
| --- | --- |
| CYRWVLGVDARV | 0.649 ± 0.012 |
| DAMSTRSRLLTR | 0.7109 ± 0.0051 |
| DASCAPAQYLPI | 0.673 ± 0.025 |
| DASGGKKVSRGT | 0.571 |
| DCCTGGKCLEVW | 0.603 ± 0.047 |
| DCMSSVFQSPPG | 0.693 ± 0.01 |
| DCSCCGGVSCVV | 0.639 ± 0.014 |
| DCVWGLERVLLL | 0.756 ± 0.016 |
| DCWAGWGLCGGG | 0.723 ± 0.042 |
| DDIGGRKLCVRG | 0.6692 ± 0.0028 |
| DEKKMEKQTNRT | 0.638 ± 0.045 |
| DENEKIKKVKVK | 0.754 ± 0.02 |
| DERVSAQDFLEG | 0.6873 ± 0.003 |
| DEWAGKYLKTIA | 0.702 ± 0.013 |
| DFILVRGWADLR | 0.616 ± 0.059 |
| DFKHKYREKKKF | 0.615 ± 0.062 |
| DFLCHFCVIDEC | 0.653 ± 0.066 |
| DFSLRCIAIPRV | 0.651 ± 0.046 |
| DFVGCSGRGSFV | 0.72 ± 0.023 |
| DGASAARQGGAR | 0.7171 ± 0.00082 |
| DGCLMEHSMQVG | 0.656 ± 0.035 |
| DGCRLGDFLNRV | 0.66 ± 0.042 |
| DGGHSFLSVARG | 0.644 ± 0.04 |
| DGGSGQGMLGGS | 0.628 ± 0.043 |
| DGGVGGRAPRVR | 0.744 ± 0.097 |
| DGKTKKKTRSLR | 0.652 ± 0.034 |

| Sequence | protein stability index |
| --- | --- |
| DGRMGAGVAGTG | 0.636 ± 0.069 |
| DGRRRHCYTITA | 0.661 ± 0.031 |
| DGSMRKWGQGVG | 0.575 ± 0.067 |
| DHGRLFSNILIS | 0.645 ± 0.028 |
| DHRGSIWWAGSG | 0.702 ± 0.0034 |
| DIERRMEVINNG | 0.696 ± 0.032 |
| DIGSSGRVGGLG | 0.712 ± 0.031 |
| DIRGGDMGEWRE | 0.683 ± 0.023 |
| DIVSGGLCVEVL | 0.643 ± 0.033 |
| DIVVGANISSIN | 0.641 ± 0.02 |
| DKACVHPRTVTG | 0.703 ± 0.07 |
| DKATGARGKPPR | 0.649 ± 0.13 |
| DKDWDHGSLCIP | 0.692 ± 0.074 |
| DKKATTSIGIKK | 0.642 ± 0.07 |
| DKLDKKTLYLRK | 0.729 ± 0.061 |
| DKSEINKPTKGK | 0.675 ± 0.021 |
| DKSIGIYIVRSH | 0.731 ± 0.012 |
| DKVIIRKLRTSK | 0.6863 ± 0.0051 |
| DKVKILVGVAGW | 0.607 ± 0.036 |
| DKVLQSLALKCK | 0.508 ± 0.0074 |
| DLASPIFSRFSS | 0.687 ± 0.036 |
| DLCITNTMLFYL | 0.7025 ± 0.006 |
| DLGPLFVSWSTW | 0.778 ± 0.021 |
| DLIRIRHACGFL | 0.663 ± 0.048 |
| DLPYLYPRCLIS | 0.72683 ± 0.00028 |
| DLSDGHFSTASP | 0.678 ± 0.0069 |

| Sequence | protein stability index |
| --- | --- |
| DLTQHRQHKPQK | 0.735 ± 0.043 |
| DPFFPPYTPSPS | 0.782 ± 0.049 |
| DPFYRNFARREA | 0.738 ± 0.026 |
| DPGTNGGCAPPV | 0.676 ± 0.0014 |
| DPKNEINAKENI | 0.689 ± 0.069 |
| DPPLPAHPDVPP | 0.771 ± 0.086 |
| DPQRQDVFRVSE | 0.6823 ± 0.0021 |
| DPRPHPPFARSP | 0.699 ± 0.026 |
| DPRSPLSHSFLR | 0.706 ± 0.044 |
| DPWGGTGKGHWG | 0.679 ± 0.0056 |
| DQATEPTPKPPD | 0.643 ± 0.0079 |
| DQSSTIYKIIKE | 0.672 ± 0.045 |
| DRCSRFRCFFVG | 0.6 ± 0.031 |
| DRLGGDWMERGG | 0.688 ± 0.032 |
| DRPWAGGGLGVC | 0.621 ± 0.081 |
| DRRLGKHEYQPY | 0.737 ± 0.022 |
| DRRLPVSPPTIV | 0.774 ± 0.12 |
| DRRQLSVVARRT | 0.648 ± 0.027 |
| DRRRGMVRKTHV | 0.659 ± 0.019 |
| DRRVSYKKKKRK | 0.672 ± 0.14 |
| DRSRWMVVRGGG | 0.648 ± 0.13 |
| DSCGVFLGDFFQ | 0.727 ± 0.026 |
| DSDGILTEPTSW | 0.707 ± 0.0094 |
| DSDSVMPFERLM | 0.659 ± 0.0095 |
| DSFDLPCLFKVP | 0.659 ± 0.078 |
| DSHDMSQDLFVN | 0.767 ± 0.039 |

| Sequence | protein stability index |
| --- | --- |
| DSIALNKDVFWW | 0.773 ± 0.02 |
| DSLTKYSAKEYR | 0.5777 ± 0.0052 |
| DSNTAGLTRDIA | 0.645 ± 0.015 |
| DSQSRRFDRSRN | 0.671 ± 0.076 |
| DSVRGNDSGSGL | 0.7245 ± 0.0064 |
| DTHESELNQLNG | 0.6902 ± 0.0032 |
| DTPERKGNLEEH | 0.709 ± 0.053 |
| DVGWRATGVLGG | 0.7106 ± 0.0052 |
| DVGWRVFVFGGL | 0.704 ± 0.038 |
| DVLSPRPSPLPS | 0.665 ± 0.0093 |
| DVRSGRAVVGGW | 0.63 ± 0.051 |
| DWYLVGGRVFWV | 0.721 ± 0.015 |
| DYLDYPSYNDLT | 0.599 ± 0.038 |
| DYRKGDVETPFV | 0.677 ± 0.032 |
| DYVVHSGTYGPK | 0.687 ± 0.021 |
| EAIGGVPASSRP | 0.661 ± 0.0091 |
| EALTTAATRYGP | 0.651 ± 0.0068 |
| EARMGVGRCGTG | 0.661 ± 0.022 |
| EARRHTKHPGKI | 0.753 ± 0.066 |
| EASGPGPGAKAT | 0.6526 ± 0.0026 |
| EATGSLISFCGW | 0.665 ± 0.068 |
| EAVCHQFVELIG | 0.605 ± 0.02 |
| ECESGKFSLGGT | 0.68 ± 0.02 |
| ECGLGGCGGLGV | 0.705 ± 0.03 |
| ECTTTWLVPQHL | 0.655 ± 0.015 |
| ECYKKFVCSCCT | 0.515 ± 0.0086 |

| Sequence | protein stability index |
| --- | --- |
| EDFCMVEQPGVE | 0.7012 ± 0.0054 |
| EDILWADVPYSK | 0.759 ± 0.039 |
| EDRSITYNALIL | 0.678 ± 0.013 |
| EDRTQEIQNIHD | 0.686 ± 0.012 |
| EDSGRPGRPSTH | 0.662 ± 0.048 |
| EDYERETRKICK | 0.717 ± 0.038 |
| EEGGQGITIEES | 0.686 ± 0.12 |
| EEGGVWIRVEAG | 0.588 ± 0.019 |
| EEGKSTREKEGG | 0.685 ± 0.036 |
| EEMEKRNREKEL | 0.691 ± 0.094 |
| EENGAGVSVGKL | 0.653 ± 0.0085 |
| EETRRKKRTGKK | 0.707 ± 0.0099 |
| EEVKRKSGGKSK | 0.662 ± 0.027 |
| EGCYGVRGNTLH | 0.612 ± 0.017 |
| EGDGLVWGGQGG | 0.691 ± 0.0078 |
| EGEGQGWGGQGG | 0.6994 ± 0.0021 |
| EGEVGGVVLPRI | 0.696 ± 0.04 |
| EGGERERGNRER | 0.7176 ± 0.0069 |
| EGGLKIRRSRDE | 0.657 ± 0.024 |
| EGGRGGGRGVVG | 0.67 ± 0.027 |
| EGIVRYRKRGSR | 0.665 ± 0.015 |
| EGKKKKKGNRPK | 0.676 ± 0.081 |
| EGKWCGVKRGVY | 0.627 ± 0.033 |
| EGPTRIKRGRSG | 0.685 ± 0.031 |
| EGQARRAGRQGR | 0.7349 ± 0.0053 |
